What was measured:
Assay in all cases: EMSA
Details in all cases: EMSA: 10 mM Tris pH 7.5, 50 mM KCl, 1 mM EDTA, 1 mM DTT, 5% glycerol, 100 ug/mL BSA, 5 ug/mL poly(dI-dC), 0.25 nM probe, 25 C; footprinting: 10 mM Tris pH 8.0 …
[1] = molecular target: T1, Vfr (Pseudomonas aeruginosa) (UniProt P55222)
T1 sequence: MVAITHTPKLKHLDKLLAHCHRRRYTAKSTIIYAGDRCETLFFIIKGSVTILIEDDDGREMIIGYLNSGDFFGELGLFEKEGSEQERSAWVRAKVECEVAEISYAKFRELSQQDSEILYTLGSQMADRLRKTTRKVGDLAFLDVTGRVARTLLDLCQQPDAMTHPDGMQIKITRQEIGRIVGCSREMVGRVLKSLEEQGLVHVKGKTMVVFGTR

[2] = molecular target: T2, His6-AlgR (Pseudomonas aeruginosa PAK) (UniProt P26275)
T2 sequence: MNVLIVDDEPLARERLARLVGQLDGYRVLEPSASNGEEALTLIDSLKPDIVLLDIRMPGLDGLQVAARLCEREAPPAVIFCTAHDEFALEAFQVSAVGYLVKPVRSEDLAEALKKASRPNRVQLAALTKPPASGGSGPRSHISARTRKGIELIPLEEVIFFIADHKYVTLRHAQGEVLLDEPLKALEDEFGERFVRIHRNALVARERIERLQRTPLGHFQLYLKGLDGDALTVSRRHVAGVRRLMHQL

[3] = molecular target: T3, Vfr;His6-AlgR (Pseudomonas aeruginosa;Pseudomonas aeruginosa PAK) (UniProt P55222+P26275)
T3 sequence 1: T1 sequence
T3 sequence 2: T2 sequence

[4] = tested on: His6-AlgR (Pseudomonas aeruginosa PAK)

Row | Substance | binding [1] | other results
1 | GTACGGGCGAAATAAAGCACCGAAATGCCATCTGCCGCAAAAAACCGCGAAACAGCGCTCGTTCCGGCTTCGTCGACGAGCCGCCGGTTTTTCCTCCCGGCCAGTAATCATCGTTGCCCTTTGCCCGTCACGCAGGCCGCGCG (double strand) [PalgZ VBS1 mutant] | binds more weakly | –
2 | GCATACCGTTGCCTGGCAACTGATCCTCAACCGGCAGGGCCGGCTCCGTACCGCGAGCGCCAGGGAGAACCGGGAGAAACGTGAGCTATGCAGCACTTCCGGATGATCATGGACCAGTTGTCCTGCCCCACGGGCCGACCGTCAACGACCGCAAGACGCTCCCAGGCCCGTTTGGCATGCTTTCCAGGCGTAGAC (double strand) [PfimU WT] | binds | binding [2]: binds; binding [3]: binds
3 | GTACGGGCGAAATAAAGCACCGAAATGTCATCTGCCAAATCAAACCGCGAAACAGCGCTCGTTCCGGCTTCGTCGACGAGCCGCCGGTTTTTCCTCCCGGCCAGTAATCATCGTTGCCCTTTGCCCGTCACGCAGGCCGCGCG (double strand) [PalgZ VBS1-3 mutant (VBS1 and VBS3)] | binds more weakly | –
4 | PfimU WT | – | K half [4]: > 351 nM
5 | GTACGGGCGAAATAAAGCACCGAAATGTCATCTGCCAAATCAAACCACAGAACAGCGATACTTCCGGCTTCGTCGACGAGCCGCCGGTTTTTCCTCCCGGCCTGCTATCATCGTCGCACTTTGCCCGTCACGCAGGCCGCGCG (double strand) [PalgZ VBS2-3 mutant] | binds more weakly | –
6 | GTACGGGCGAAATAAAGCACCGAAATGTCATCTGCCAAATCAAACCACAGAACAGCGATACTTCCGGCTTCGTCGACGAGCCGCCGGTTTTTCCTCCCGGCCAGTAATCATCGTTGCCCTTTGCCCGTCACGCAGGCCGCGCG (double strand) [PalgZ VBS1-2-3 mutant] | no binding | –
7 | GTACGGGCGAAATAAAGCACCGAAATGTCATCTGCCAAATCAAACCGCGAAACAGCGCTCGTTCCGGCTTCGTCGACGAGCCGCCGGTTTTTCCTCCCGGCCTGCTATCATCGTCGCACTTTGCCCGTCACGCAGGCCGCGCG (double strand) [PalgZ VBS3 mutant] | binds | –

Reference: paper PMC8787478
